Measurements reported in PMC5434896, “Inhibition of PDE5A1 guanosine cyclic monophosphate (cGMP) hydrolysing activity by sildenafil analogues that inhibit cellular cGMP efflux” (The Journal of Pharmacy and Pharmacology, 2017).

System: [H][C@@]12COP(=O)(O)O[C@@]1([H])[C@@H](O)[C@H](n1cnc3c(=O)[nH]c(N)nc31)O2
Experiment: [3H]-cGMP hydrolysis, snake venom nucleotidase, anion-exchange separation
Assay type: biochemical, Homo sapiens
Conditions: [3H]-cGMP mixed with unlabelled cGMP […], […] MgCl2, pH […]

**Q.** How did the Km turn out when PDE5A1 (Homo sapiens) was run?
**A.** 1.7 ± 0.4 µM
